Values belong to the molecule of their own block, whether it stands above or below them.
Target: Gal4BD-TR4LBD (mouse) (UniProt P49117)
Assay: two-hybrid

Sequence of UniProt P49117 (P49117 178-477): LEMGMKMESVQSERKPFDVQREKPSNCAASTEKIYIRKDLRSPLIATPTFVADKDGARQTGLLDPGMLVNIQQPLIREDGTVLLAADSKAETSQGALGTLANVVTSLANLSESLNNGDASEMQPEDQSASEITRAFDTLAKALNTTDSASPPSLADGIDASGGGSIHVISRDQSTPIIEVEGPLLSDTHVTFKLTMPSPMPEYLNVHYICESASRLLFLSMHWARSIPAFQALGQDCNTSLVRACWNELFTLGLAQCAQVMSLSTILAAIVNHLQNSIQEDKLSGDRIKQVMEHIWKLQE

fold enhancement of the two-hybrid reporter with γ-linoleic acid: 12 fold
Molecule: VP16AD-PCAF (from UniProt Q92831 1-832) (natural protein)

fold enhancement of the two-hybrid reporter with γ-linoleic acid: 23 fold
B1: VP16AD-RIP140 (natural protein)
chain: MTHGEELGSDVHQDSIVLTYLEGLLMHQAAGGSGTAINKKSAGHKEEDQNFNLSGSAFPSCQSNGPTVSTQTYQGSGMLHLKKARLLQSSEDWNAAKRKRLSDSIVNLNVKKEALLAGMVDSVPKGKQDSTLLASLLQSFSSRLQTVALSQQIRQSLKEQGYALSHESLKVEKDLRCYGVASSHLKTLLKKSKTKDQKSGPTLPDVTPNLIRDSFVESSHPAVGQSGTKVMSEPLSCAARLQAVASMVEKRASPAASPKPSVACSQLALLLSSEAHLQQYSREHALKTQNAHQVASERLAAMARLQENGQKDVGSSQLSKGVSGHLNGQARALPASKLVANKNNAATFQSPMGVVPSSPKNTSYKNSLERNNLKQAANNSLLLHLLKSQTIPTPMNGHSQNERASSFESSTPTTIDEYSDNNPSFTDDSSGDESSYSNCVPIDLSCKHRIEKPEAERPVSLENLTQSLLNTWDPKIPGVDIKEDQDTSTNSKLNSHQKVTLLQLLLGHKSEETVERNASPQDIHSDGTKFSPQNYTRTSVIESPSTNRTTPVSTPPLYTASQAESPINLSQHSLVIKWNSPPYACSTPASKLTNTAPSHLMDLTKGKESQAEKPAPSEGAQNSATFSASKLLQNLAQCGLQSSGPGEEQRPCKQLLSGNPDKPLGLIDRLNSPLLSNKTNAAEESKAFSSQPAGPEPGLPGCEIENLLERRTVLQLLLGNSSKGKNEKKEKTPARDEAPQEHSERAANEQILMVKIKSEPCDDFQTHNTNLPLNHDAKSAPFLGVTPAIHRSTAALPVSEDFKSEPASPQDFSFSKNGLLSRLLRQNQESYPADEQDKSHRNSELPTLESKNICMVPKKRKLYTEPLENPFKKMKNTAVDTANHHSGPEVLYGSLLHQEELKFSRNELDYKYPAGHSSASDGDHRSWARESKSFNVLKQLLLSENCVRDLSPHRSDSVPDTKKKGHKNNAPGSKPEFGISSLNGLMYSSPQPGSCVTDHRTFSYPGMVKTPLSPPFPEHLGCVGSRPEPGLLNGCSVPGEKGPIKWVIADMDKNEYEKDSPRLTKTNPILYYMLQKGGGNSVTTQETQDKDIWREPASAESLSQVTVKEELLPAAETKASFFNLRSPYNSHMGNNASRPHSTNGEVYGLLGNALTIKKESE

Reference: paper PMC2784022
